Here are results for 19 molecules from US20240116985A1 (published 2024).

Starred links: 1 amine or outer side, 2 acyl side, 3 side chain; linkers in the order of their positions; H or OH if unused. Positions of bridges follow the written chain, without caps; N, C: chain ends. Non-standard residues stand in square brackets, D forms with d. Primed or numbered codes have the meaning given here. B5(16) = 2-amino-2-(pent-4-en-1-yl)hept-6-enoic acid = 2,2-bis(4-pentenyl)glycine (stitching residue), C=CCCCC(CCCC=C)(N[*:1])C(=O)[*:2]; (Tfb)GA = (S)-2-amino-3-((carboxymethyl)(4,4,4-trifluorobutyl)amino)propanoic acid, O=C([C@H](CN(CCCC(F)(F)F)CC(=O)[*:3])N[*:1])[*:2]; PyrS2 = (S)-3-amino-1-((pent-4-en-1-yloxy)carbonyl)pyrrolidine-3-carboxylic acid, C=CCCCOC(=O)N1CC[C@@](N[*:1])(C(=O)[*:2])C1; B5(9) = 2-amino-2-(pent-4-en-1-yl)hept-6-enoic acid (2,2-bis(4-pentenyl)glycine), C=CCCCC(CCCC=C)(N[*:1])C(=O)[*:2]; B5(3) = 2,2-bis(4-pentenyl)glycine (stitching residue), C=CCCCC(CCCC=C)(N[*:1])C(=O)[*:2]; Bta = N[C@@H](Cc1csc2ccccc12)C(=O)O; αAllylPro = C=CC[C@@]1(C(=O)O)CCCN1; tBuAla = CC(C)(C)C[C@H](N)C(=O)O; 3Thi = N[C@@H](Cc1ccsc1)C(=O)O; S8 = C=CCCCCCC[C@](C)(N)C(=O)O

To fix the notation:
B1: I-1634 (peptide)
peptide: Ac-[αAllylPro]D[tBuAla][B5(3)]D[(Tfb)GA]AAFN[PyrS2][3Thi][Bta]Q-NH2
modifications: staple 1-4, 4-11
B2: I-617 (peptide)
peptide: XDLXDEAAFTXFXH
modifications: not fully specified; Ac-PL3-Asp-Leu-B5-Asp-Glu-Ala-Ala-Phe-Thr-S8-Phe-BztA-His-NH2; N-terminal acetyl, C-terminal amide; non-natural PL3 (1), B5 (4), S8 (11), BztA (13); staples PL3-B5 and B5-S8 by olefin metathesis
notes: Stapled peptide; Earlier-eluting staple isomer composition
B3: I-622 (peptide)
peptide: XDLXDEAAFTXFXQ
modifications: not fully specified; Ac-PL3-Asp-Leu-B5-Asp-Glu-Ala-Ala-Phe-Thr-S8-Phe-BztA-Gln-NH2; N-terminal acetyl, C-terminal amide; non-natural PL3 (1), B5 (4), S8 (11), BztA (13); staples PL3-B5 and B5-S8 by olefin metathesis
notes: as for B2
B4: I-623 (peptide)
peptide: XDLXDEAAFTXFXQ
modifications: not fully specified; Ac-PL3-Asp-Leu-B5-Asp-Glu-Ala-Ala-Phe-Thr-S8-Phe-BztA-Gln-NH2; N-terminal acetyl, C-terminal amide; non-natural PL3 (1), B5 (4), S8 (11), BztA (13); staples PL3-B5 and B5-S8 by olefin metathesis
notes: Stapled peptide; Later-eluting staple isomer composition
B5: I-618 (peptide)
peptide: XDLXDEAAFTXFXH
modifications: not fully specified; Ac-PL3-Asp-Leu-B5-Asp-Glu-Ala-Ala-Phe-Thr-S8-Phe-BztA-His-NH2; N-terminal acetyl, C-terminal amide; non-natural PL3 (1), B5 (4), S8 (11), BztA (13); staples PL3-B5 and B5-S8 by olefin metathesis
notes: as for B4
B6: I-638 (peptide)
peptide: XDIXDEAAFQXFXP
modifications: not fully specified; Ac-PL3-Asp-Ile-B5-Asp-Glu-Ala-Ala-Phe-Gln-S8-Phe-BztA-Pro-NH2; N-terminal acetyl, C-terminal amide; non-natural PL3 (1), B5 (4), S8 (11), BztA (13); staples PL3-B5 and B5-S8 by olefin metathesis
notes: as for B4
B7: I-614 (peptide)
peptide: XDIXDRAAFQXFXQ
modifications: not fully specified; Ac-PL3-Asp-Ile-B5-Asp-Arg-Ala-Ala-Phe-Gln-S8-Phe-BztA-Gln-NH2; N-terminal acetyl, C-terminal amide; non-natural PL3 (1), B5 (4), S8 (11), BztA (13); staples PL3-B5 and B5-S8 by olefin metathesis
notes: as for B4
B8: I-613 (peptide)
peptide: XDIXDRAAFQXFXQ
modifications: not fully specified; Ac-PL3-Asp-Ile-B5-Asp-Arg-Ala-Ala-Phe-Gln-S8-Phe-BztA-Gln-NH2; N-terminal acetyl, C-terminal amide; non-natural PL3 (1), B5 (4), S8 (11), BztA (13); staples PL3-B5 and B5-S8 by olefin metathesis
notes: as for B2
B9: I-637 (peptide)
peptide: XDIXDEAAFQXFXP
modifications: not fully specified; Ac-PL3-Asp-Ile-B5-Asp-Glu-Ala-Ala-Phe-Gln-S8-Phe-BztA-Pro-NH2; N-terminal acetyl, C-terminal amide; non-natural PL3 (1), B5 (4), S8 (11), BztA (13); staples PL3-B5 and B5-S8 by olefin metathesis
notes: as for B2
B10: I-643 (peptide)
peptide: Ac-[αAllylPro]DI[B5(9)]DEAAFQ[S8]F[Bta]W-NH2
modifications: staple 1-4, 4-11
notes: as for B2
B11: I-634 (peptide)
peptide: Ac-[αAllylPro]DI[B5(16)]DEAAFQ[S8]F[Bta]L-NH2
modifications: staple 1-4, 4-11
notes: Stapled peptide
B12: I-641 (peptide)
peptide: XDIXDEAAFQXFXT
modifications: not fully specified; Ac-PL3-Asp-Ile-B5-Asp-Glu-Ala-Ala-Phe-Gln-S8-Phe-BztA-Thr-NH2; N-terminal acetyl, C-terminal amide; non-natural PL3 (1), B5 (4), S8 (11), BztA (13); staples PL3-B5 and B5-S8 by olefin metathesis
notes: as for B2
B13: I-636 (peptide)
peptide: Ac-[αAllylPro]DI[B5(16)]DEAAFQ[S8]F[Bta]Y-NH2
modifications: staple 1-4, 4-11
notes: Stapled peptide
B14: I-633 (peptide)
peptide: Ac-[αAllylPro]DI[B5(16)]DEAAFQ[S8]F[Bta]R-NH2
modifications: staple 1-4, 4-11
notes: Stapled peptide
B15: I-635 (peptide)
peptide: Ac-[αAllylPro]DI[B5(16)]DEAAFQ[S8]F[Bta]F-NH2
modifications: staple 1-4, 4-11
notes: Stapled peptide
B16: I-640 (peptide)
peptide: XDIXDEAAFQXFXS
modifications: not fully specified; Ac-PL3-Asp-Ile-B5-Asp-Glu-Ala-Ala-Phe-Gln-S8-Phe-BztA-Ser-NH2; N-terminal acetyl, C-terminal amide; non-natural PL3 (1), B5 (4), S8 (11), BztA (13); staples PL3-B5 and B5-S8 by olefin metathesis
notes: as for B4
B17: I-639 (peptide)
peptide: XDIXDEAAFQXFXS
modifications: not fully specified; Ac-PL3-Asp-Ile-B5-Asp-Glu-Ala-Ala-Phe-Gln-S8-Phe-BztA-Ser-NH2; N-terminal acetyl, C-terminal amide; non-natural PL3 (1), B5 (4), S8 (11), BztA (13); staples PL3-B5 and B5-S8 by olefin metathesis
notes: as for B2
B18: I-642 (peptide)
peptide: XDIXDEAAFQXFXT
modifications: not fully specified; Ac-PL3-Asp-Ile-B5-Asp-Glu-Ala-Ala-Phe-Gln-S8-Phe-BztA-Thr-NH2; N-terminal acetyl, C-terminal amide; non-natural PL3 (1), B5 (4), S8 (11), BztA (13); staples PL3-B5 and B5-S8 by olefin metathesis
notes: as for B4
B19: I-644 (peptide)
peptide: Ac-[αAllylPro]DI[B5(9)]DEAAFQ[S8]F[Bta]W-NH2
modifications: staple 1-4, 4-11
notes: as for B4

The first assay addresses T1, B-cat-Halo (UniProt P35222 1-781).
T1 sequence (looked up): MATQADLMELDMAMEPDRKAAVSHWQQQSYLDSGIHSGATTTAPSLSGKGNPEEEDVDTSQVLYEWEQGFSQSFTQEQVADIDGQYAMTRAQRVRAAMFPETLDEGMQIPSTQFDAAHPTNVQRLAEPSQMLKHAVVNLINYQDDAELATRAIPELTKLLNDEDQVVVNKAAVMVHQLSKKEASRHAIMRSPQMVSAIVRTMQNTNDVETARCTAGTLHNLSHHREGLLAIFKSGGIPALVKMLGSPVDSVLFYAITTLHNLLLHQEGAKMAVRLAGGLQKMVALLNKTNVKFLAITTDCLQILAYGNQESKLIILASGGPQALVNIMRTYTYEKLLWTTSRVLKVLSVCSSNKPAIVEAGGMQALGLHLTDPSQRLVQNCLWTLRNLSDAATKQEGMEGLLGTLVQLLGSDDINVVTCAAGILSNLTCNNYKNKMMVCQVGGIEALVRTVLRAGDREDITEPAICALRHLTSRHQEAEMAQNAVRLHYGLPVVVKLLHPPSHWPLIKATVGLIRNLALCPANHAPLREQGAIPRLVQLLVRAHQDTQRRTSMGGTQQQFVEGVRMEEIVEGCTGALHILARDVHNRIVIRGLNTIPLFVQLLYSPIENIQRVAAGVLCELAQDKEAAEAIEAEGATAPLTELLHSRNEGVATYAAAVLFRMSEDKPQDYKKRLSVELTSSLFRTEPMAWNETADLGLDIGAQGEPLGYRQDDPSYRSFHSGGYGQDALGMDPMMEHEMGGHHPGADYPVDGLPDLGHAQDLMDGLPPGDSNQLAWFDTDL
The assay is described as follows: cell-based or functional assay.
On to B1, for which the “NanoBRET Abs IC50” value was determined as 16500 nM.

Another assay concerns the target T2, full-length beta-Catenin (Uniprot ID P35222) (Homo sapiens (Human), UniProt P35222 1-781).
T2 construct: Said to be full-length in the fluorescence polarization assay; also called bCat; B-Catenin
T2 sequence: T1 sequence (looked up)
The assay is described as follows: fluorescence polarization competition; peptide titrated against 10 nM full-length beta-catenin + 10 nM 5FAM-TCF4(10-53) probe. The procedure: The plate was incubated protected from light for 60 minutes at 20° C. prior to read. Reads were performed on a CLARIOstar plate reader (BMG Labtech) in duplicate, and data were fitted to a 1:1 binding model with hill slope using an in-house script. All provided concentrations are final concentrations.
For orientation: Polarisation of emitted light reports the rotation of a fluorescent probe.
Regarding B2, the EC50 – broadly, the midpoint of the concentration-response curve – was 253 nM. Regarding B3, the EC50 is 230 nM. On to B4, for which the EC50 is 103 nM. Turning to B5, the half-maximal effective concentration (EC50) was 135 nM.

With B6, the EC50 came to 3880 nM. As to B7, the EC50 was 1140 nM.

B8: the EC50 was determined as 1630 nM. Take B9: the EC50 was determined as 5000 nM.

For the molecule B10, the half-maximal effective concentration (EC50) was 958 nM. For B11, the 50% effective concentration (EC50) amounted to 425 nM.

Consider B12, for which the EC50 worked out at 122 nM. Still for that read-out and setting: then B13, with 198 nM; and B14, with 88 nM.

For B15, the half-maximal effective concentration (EC50) came out at 171 nM.

As for B16, the EC50 stood at 87 nM. The same measure, in the same setting: in the case of B17 it was 109 nM; in that of B18, 118 nM; in that of B19, 808 nM.
